The nanobody polyreactivity screen of Harvey et al. (2022)

Assay: yeast display, Sf9 membrane polyspecificity reagent, FACS + sequencing; frameworks hold sequencing errors
How it was run: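 Genes from sorted yeast were amplified by colony PCR, read by MiSeq 2 × 250 sequencing and filtered on CDR length. These cells carried a synthetic nanobody library in Saccharomyces cerevisiae BJ5465 and were sorted by FACS into low and high (top ~1%) gates on anti-HA and streptavidin fluorescence. Polyreactivity is labelled according to the gate of origin.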

Sequence	polyreactivity (PSR sort gate)
QVQLVESCGGLVQAGGSLRLSCAASGSTYAMGWYRQAPGKERELVASITSRGGSTYYADSVKGRFTISRDNAKNTVYLQMNSLKPEDTAVYYCNRVYRYPYNYWGQGTQVTVSS	high polyreactivity
QVQLVESCGGLVQAGGSLRLSCAASGYIFLYNTMGWYRQAPWKERELVAAISFRAGSTYYADSVKGRFTISRDNAMNTVYLQMNSLKPEDTAVYYCAKRQRYYLYGHDYWGQGTQVTVSS	low polyreactivity
QVQLVESCGGLVQAGGSLRLSCAASGYIFVNYAMGWYRQAPGKQRELVARITGSGGSTDYADSVKGRFTISRDNAKNTVYLQMNSLKPEDTAVYYCNTKYVRYLRYYTYKYWGHGTQVTVSS	low polyreactivity
QVQLVESCGGLVQAGGSLRLSCAASGYTFGSNAMGWYRQAPGKERELVAAISTNGGRTNYADSVKGRFTISRDNAKNTVYLQMNSLKPEDTAVYYCNTRLRVRYYLSGFDYWGQGTQVTVSS	high polyreactivity
QVQLVESCGGLVQAGGSLRLSCAATGLTISRNVMGWYRQAPGKEREWVAAISRSGSTYYADSVKGRFTISRDNAKNTVYLQMNSLKPEDTAVYYCAKERYYTGRYSGHDYCGQGTQVTVSS	high polyreactivity
QVQLVESCGGLVQAGGSLRLSCADSGRTFGSYAMGWYRQATRKDRELVASISRSGGTTYYADSVKGRFTLSRDNAKNTVYLQMYSQKPEDTAVYYCAAQYVRYGLYYWGQGTQVTVSS	high polyreactivity
QVQLVESCGGLVQEGGSLRLSSAASGSIRYYALGWYRQAPGKESELVAAISSRGTNTYYADSVKGSITISRDNAKNTVYLQMKSQKPEDTAVYYCNAVVGLGYNYWGQGTQVSVSS	high polyreactivity
QVQLVESCGGLVQPGGSLRLSCAASGSTFTRYGFGWYRQATGKEREMVAAITTSGSSTYYADSVKGRFTISRDNAKYTVYLQMNSLKPEETAVYYGAADWSSWGFDYWGQGTQVTVSS	low polyreactivity
QVQLVESCGVLVQAGGSLRLSCDASGSIFVWNAMGWYREAPGKERELVAAIRSDDDSTYYADSVKGLFTISRDNAKNTVYLQMNCLNPEDTAVINALVDSPTFSHVKPWDGGDYWGQGTQVTVSS	low polyreactivity
QVQLVESDGGIVQAGGSLRLTCAASGIIFGYYVMGWYRQEPGKEGELVASITSGGSTNYADSVKGRFTISRDNAKNTVYLQMNSLKPEDTAVYYCAAEERTDTIACWRYPHDYWGQGTQVTVSS	low polyreactivity
QVQLVESDGGLVQAGGSLRLSCAASGSTFRYNAMGWYRQAPGKERELVAAISWGGGTPFYADSVKGRFTISRDNAKNTVYLQMNSLTPEDTAVYYCAASYRDYPWGRYYYWGQGTQVTVSS	low polyreactivity
QVQLVESEGGLVQAGGSLRLSCAASGRTFHYYAMGWYRQAPGKERELVAAISSTGGSTYYADSVKGRFTISRDNAKNTVYLQMNSLKPEDPAVYYCAARRSRGYSPTYDYWGQGTQVTVSS	high polyreactivity
QVQLVESGAGIVQAGGSLRLSCAASGYTFQHYAMGWYRQAPGKERELVAAITRRGSGTYYADSVKGRFTISRDNAKNTVYLQMNSLKPEDTAVYYCGADWYYGDEYEYWGQGTQVNVSS	high polyreactivity
QVQLVESGAGLFQAGGSLRLSCAPSGSIFAPNDMGWYRQAPGKERELVAAITSSGGRTYYADSVKGRFTISRDNAKNTVYLQMNSLKPEDTAVYYCAADHGYQYGYWGQGTHVTVSS	low polyreactivity
QVQLVESGAGLVKAGGSLRLSCAASGRSFRGNVMGWYRQAPGKEREFVAAISSSGGSTYYADSVKGRFTISRDNAKNTVYLQMNSLKPEDTAVYYCAAGGWPYSGGWFFQPNYDYWGQGTQVTVSS	low polyreactivity
QVQLVESGAGLVKAGGSLRLSSAASGSTFGEYDMGWYRQAPGKERELVASITFSAGSTDYADSVKGRFTISRDNAKNTVYLQMNSLNPEDTAVYYCAADGWWPWEYDYWGQGTQGTVSS	low polyreactivity
QVQLVESGAGLVQAAGSLRISSAHSGFSFTYNAMGWYRQAPGKVTEFVASISRSGGRTYYADSVKGRFTISRDNANNTVYLQMNSLKPEDTAVYYCAARNAYVYGMDSWGKGTQVTVSS	low polyreactivity
QVQLVESGAGLVQAGASLRLICAASGRTFPDYAMGWYRQAPGTERELVAAIYSGGGTNYADSVKGRFTISRDNAKNTVYLQMNSLKQEDTAVYYCAATGVPGWVGFDYWGQGTQVTVSS	low polyreactivity
QVQLVESGAGLVQAGGGLRLSCAASGFIFNLYAMGWYREAPGKERELVAAISSGGNTHYADSVKGRFTISRDNAKNTVYLQMNSLKPVDTAVYYCNADVNHVNKAWHVSFHQGYYWGQGTQVTVSS	low polyreactivity
QVQLVESGAGLVQAGGILRLSCAASGRIFQYNAMGWYRQAPGKEREWVAAIRRGGGSTYYADSVKGRFTISRDNAKNTVYLQMNSLKPEDTAVYYCAARRKRVSFYPEYDYWGQGTQVTVSS	low polyreactivity
QVQLVESGAGLVQAGGRLRLSCAASGFIFTRYVMGWYRQAPGKERELVAAIRRGGSTYYADSVKGRFTISRDNAKNTVYLPMNSLKPEDTAVYYCAALYAYSLTARGMEYWGQGTQVTVSS	high polyreactivity
QVQLVESGAGLVQAGGRLRLSCAASGIIFRPYAMGWYRQAPGKERELVAAITGSGVSTYYADSVKGRFTISRDNAKITVYLQMNSLKPEDTAVYYCAKRYNRCDHRYDYWGQGTQVTVSS	low polyreactivity

Sequence	polyreactivity (PSR sort gate)
QVQLVESGAGLVQAGGRLRLSCAASGRIFIRNAMGWSRQAPGKERELVAAIDSVGSTNYADSVKGRFTISRDNAKNTVYLQLNSLKPEETAVYYCAARGWKYASPYWGYYYWGQGSQVTVSS	low polyreactivity
QVQLVESGAGLVQAGGSLGLSCAPSGRIFGRYVRGWYRQAPGKERELVATITSRGGTTYYADSVKGRFTISRDNAKNTVFLQMISLKPEDTAVYYCAVRGLIRFSKYGYWGQGTQVTVSS	high polyreactivity
QVQLVESGAGLVQAGGSLLLSSAPSASTFVSYAMGWYRQAPGKERELVAAISSGGGSTYYADSVKGRFTISRDNAKNTVYLQMNILKPEDTAVYYCAARGYAYRAQYGYWGQGTQVTVSS	high polyreactivity
QVQLVESGAGLVQAGGSLRISCAASGRTFFPNAMGWYRQAPGKERELFAAISSGGGGTYYADSVKGRFTISRDNAKNTVYLQMNSLKPEDTAVYYCAARNSKVEEDGNYWGQGTQVTVSS	low polyreactivity
QVQLVESGAGLVQAGGSLRLCCAASGSIFAPYAMGWYRQAPGKERELVAAISRSGGSTYYADSVKGRFTISRDNAKNTVYLQMNSLKPEDTAVYYCADRNGLRQYRLDYWGQGTQVTVSS	high polyreactivity
QVQLVESGAGLVQAGGSLRLSCAASGFIFEINAMGWYRQAPGKERELVAVITNSGGSTYYADSVKGRFTISRDNAKYTVYLQMNSLKPEDTAVYYCAADAVHYTNDWYDYWGQGTQVTVSS	low polyreactivity
QVQLVESGAGLVQAGGSLRLSCAASGFTFAFYAMGWSRQAPGKERELVAAITGSGGSTYYADSVKGRFTISRDNAKNTVYLQMNSLIPEVTAVYYCNNYTYYSRMDYWGPGTQVTVSS	high polyreactivity
QVQLVESGAGLVQAGGSLRLSCAASGFTFDNYVMGWYRQAPGKERELVAAISKSGTSTYYADSVKGRFTISRDNAKNTVYLQMNSLKPEDTAVYYCAAALPGYGDYYYWGQGTLVTVSS	high polyreactivity
QVQLVESGAGLVQAGGSLRLSCAASGFTFDYYAMGWYRQAPGKESELVATINGASSTNYADSVKGRFTISRDNAKNTVYLQMNSLKPEDTAVYDCNARYYGPDFVLAYDYWGQGTQVTVSS	low polyreactivity
QVQLVESGAGLVQAGGSLRLSCAASGFTFNYYAMGWYRQAPGKERELVATITTSGGITYYADSVKGRFTISRDNAKNTVYLQMNSLKPEDTAVYYCAAGSYSRYLYSLYFDFDYWGQGTQVTVSS	low polyreactivity
QVQLVESGAGLVQAGGSLRLSCAASGIIIPYYVMGRYRQAPGKEMELVAAISGSGGSTYYADSVKGRFTISRDNAKYTVYLQLNSLKPEAPAVYYCARYYYQFGGYEYWGQGTQVTVSS	high polyreactivity
QVQLVESGAGLVQAGGSLRLSCAASGITFASYAMGWYRQAPGKERELVAAITWGGSRTYYADSVKGRFTISRDNAKNSVYLQMNSLKPEDTAVYYCNAHTRYGPDYSYYYWGQGSQVTVSS	high polyreactivity
QVQLVESGAGLVQAGGSLRLSCAASGITFYDNDMGWYRQPPGKERELVAGITGTTVGTYYADSVKGRFTISRDIAKNTVYLQMNSLKPEDTAVYYALLTVVVPYQYYSLSLNTLDSWGQGTQVTVSS	low polyreactivity
QVQLVESGAGLVQAGGSLRLSCAASGITFYDYAMAWYRQAPGKERELVAAISRSGITYYADSVKGRFTISRDNAKNTVYLQMNSLKPEVTAVYYCAAGRSFDQSMYYWGQGTQVTVSS	high polyreactivity
QVQLVESGAGLVQAGGSLRLSCAASGNTFGTYAMGGSRQAPGKERELVASISKRAGSTYYADSVKGRFTISRDNAKNTVYLQMNSLKPEDTAVYYCAASSWDTFDYWGQGTQVTVSS	high polyreactivity
QVQLVESGAGLVQAGGSLRLSCAASGRIFDNYVMGWYRQAPGKERELVAAISSGGGTYYADSVKGRFTISRDNAKNTVYLQMNSLKPEDTAVYYCAKRRVYDRSFGRYDYWGQGTKVTVSS	low polyreactivity
QVQLVESGAGLVQAGGSLRLSCAASGRIFERYAMGWYRQAPGKERELVAAISVSGSGTYYADSVKGRFTISRDNAKNTVYLQMNSLKPEDTAVYYCAADASLLGLFQGYDYWGQGTQVTVSS	low polyreactivity
QVQLVESGAGLVQAGGSLRLSCAASGRIFRCYAMGWYRQAPGKERELVAAIRSGGSTNYADSVKGRFTISRDNAKNTVYLQMLSLKPEDTAVYYCATQNIYRIHQSLWGWYGYWGQGTQVTVSS	low polyreactivity
QVQLVESGAGLVQAGGSLRLSCAASGRIFTKYAMGLYRQAPGKERELVAAISGSGGNTYYADSLKGRFTISRDNAKNTVYLQMNSLKPEDTAVYYCNRAKNAYLMDFWGQVTQVTVSS	high polyreactivity
QVQLVESGAGLVQAGGSLRLSCAASGRIFYPYAMGRSRQAPGKERELVAAISGRGGRTYYADSVKGRFTISRDNAKNTVYLQMKSLKPEYTAVYYCNRVVSGYPGSDYWGNGTQVTVSS	high polyreactivity
QVQLVESGAGLVQAGGSLRLSCAASGRIFYWNAMGWYTQAPGKEREFVAAISWSGGSTYADSVKGRFTISRDNAKNTVYLQMNSLKPEDTAVYYCATRVSRSFRAYDYWGQGTQVTVSS	high polyreactivity
